Results on five molecules are retold here after PMC3899043, “Expression Pattern and Biochemical Properties of Zebrafish N-Acetylglutamate Synthase” (PLoS ONE, 2014).

Where two headings read alike, the source gives them in different places.

One data set addresses T1, zfNAGS-M (Danio rerio, UniProt E7FCP8).
T1 construct: gene nags; mature form, predicted mitochondrial targeting signal removed; N-terminus at Met47 of preprotein; N-terminal polyhistidine tag kept (pET15b); E. coli C41(DE3); predicted 55,498 Da; tetramer
T1 sequence (E7FCP8 46-527): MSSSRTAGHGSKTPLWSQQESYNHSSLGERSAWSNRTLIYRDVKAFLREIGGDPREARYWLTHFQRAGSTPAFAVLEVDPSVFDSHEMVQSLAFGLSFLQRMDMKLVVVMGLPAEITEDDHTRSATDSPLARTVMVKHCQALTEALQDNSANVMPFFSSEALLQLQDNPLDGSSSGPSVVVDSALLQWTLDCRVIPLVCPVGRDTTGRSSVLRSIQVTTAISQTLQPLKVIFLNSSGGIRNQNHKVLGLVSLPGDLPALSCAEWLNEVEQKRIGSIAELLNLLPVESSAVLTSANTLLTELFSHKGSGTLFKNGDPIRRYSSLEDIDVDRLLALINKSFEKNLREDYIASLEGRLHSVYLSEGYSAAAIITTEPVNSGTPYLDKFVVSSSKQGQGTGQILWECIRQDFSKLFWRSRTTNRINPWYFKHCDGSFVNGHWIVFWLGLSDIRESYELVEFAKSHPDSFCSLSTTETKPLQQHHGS
Description: enzymatic activity assay, Michaelis-Menten fit. The data set is classed as biochemical. To be noted: no L-arginine. From the text:
enzymatic activity assay, Michaelis-Menten fit on zfNAGS-M

A further data set deals with T2, zfNAGS-C (Danio rerio, UniProt E7FCP8).
T2 construct: gene nags; conserved segment (AAK and NAT domains), targeting signal and variable segment removed; N-terminus at Gly73 of preprotein; N-terminal polyhistidine tag kept (pET15b); E. coli C41(DE3); predicted 52,752 Da
T2 sequence (E7FCP8 73-527): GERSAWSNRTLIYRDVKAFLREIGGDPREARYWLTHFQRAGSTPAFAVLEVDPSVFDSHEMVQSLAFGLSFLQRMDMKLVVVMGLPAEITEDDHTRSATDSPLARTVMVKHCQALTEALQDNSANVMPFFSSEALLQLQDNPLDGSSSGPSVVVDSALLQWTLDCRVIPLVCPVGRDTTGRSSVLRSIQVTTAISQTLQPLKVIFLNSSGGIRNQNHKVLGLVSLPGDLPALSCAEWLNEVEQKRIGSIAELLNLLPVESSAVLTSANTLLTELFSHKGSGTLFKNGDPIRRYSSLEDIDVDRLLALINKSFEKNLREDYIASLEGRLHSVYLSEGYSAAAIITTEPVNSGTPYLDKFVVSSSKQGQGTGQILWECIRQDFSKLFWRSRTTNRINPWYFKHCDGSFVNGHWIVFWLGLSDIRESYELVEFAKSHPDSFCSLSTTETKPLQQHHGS
Description: thermofluor with SYPRO Orange. To be noted: L-arginine up to 10 mM; no substrates; pH 7.5 phosphate. The data set is classed as binding. (In general: In DSF a fluorescence change marks the thermal transition of the protein.)

The target in data set [1] is mature zebrafish N-acetylglutamate synthase (zfNAGS-M) (zebrafish (Danio rerio)) (UniProt E7FCP8). Description: SEC; analytical gel chromatography, Superdex 200 HR 10/30, room temperature, 50 mM potassium phosphate pH 7.5, 300 mM KCl, 20% glycerol, 10 mM beta-mercaptoethanol, 0.006% Triton X-100, no L-arginine; 100 ul loaded at 0.5-1.3 mg/ml (zfNAGS-M) or 0.5-2.0 mg/ml (zfNAGS-C). On the technique in general: SEC sorts molecules by how far they enter the pores of the column.

Substrate in data set [2]: CC(=O)SCCNC(=O)CCNC(=O)[C@H](O)C(C)(C)COP(=O)(O)OP(=O)(O)OC[C@H]1O[C@@H](n2cnc3c(N)ncnc32)[C@H](O)[C@@H]1OP(=O)(O)O
Description: enzymatic activity assay, Michaelis-Menten fit. It counts as biochemical, Danio rerio. To be noted: 15 mM L-glutamate; no L-arginine. From the text: (§1) enzymatic activity assay, Michaelis-Menten fit on zfNAGS-C

Substrate in data set [3]: N[C@@H](CCC(=O)O)C(=O)O
Description: enzymatic activity assay, Michaelis-Menten fit. The data set is classed as biochemical, Danio rerio. To be noted: 4 mM AcCoA; no L-arginine.
Excerpt: as §1

As to `CC(=O)SCCNC(=O)CCNC(=O)[C@H](O)C(C)(C)COP(=O)(O)OP(=O)(O)OC[C@H]1O[C@@H](n2cnc3c(N)ncnc32)[C@H](O)[C@@H]1OP(=O)(O)O` [AcCoA], at zfNAGS-M (15 mM L-glutamate, read-out: AcCoA / Km ^app), the Km worked out at 220 ± 30 µM. As to `N=C(N)NCCC[C@H](N)C(=O)O` [L-arginine], the “thermofluor with SYPRO Orange” value at zfNAGS-C was “Addition of L-arginine to both zfNAGS-M and zfNAGS-C resulted in changes”.

Regarding `N[C@@H](CCC(=O)O)C(=O)O` [L-glutamate], the Km on zfNAGS-M (4 mM AcCoA, read-out: Glutamate / Km ^app) came to 1130 ± 130 µM. One may read the stoichiometry N as a count of units in the complex or per binding partner. Take “mature zebrafish N-acetylglutamate synthase (zfNAGS-M) (from UniProt E7FCP8 47-527) (enzyme)”: the stoichiometry N in data set [1] amounted to 4.

B1: zfNAGS-C (Danio rerio) (protein)
chain: T2 sequence (E7FCP8 73-527)
notes: conserved segment (AAK and NAT domains), targeting signal and variable segment removed; N-terminus at Gly73 of preprotein; N-terminal polyhistidine tag kept (pET15b); E. coli C41(DE3); predicted 52,752 Da
The Vmax is the rate approached at saturating substrate. Consider B1, for which, in data set [2], the Km turned out to be 230 ± 60 µM and the Vmax is 32.2 µmol/min/mg. Also, in data set [3], the Km is 1120 ± 210 µM and the Vmax was 39.5 µmol/min/mg.
